In the supplement of paper PMC9116672:
± gives the standard deviation of the averaged measurements or the uncertainty stated by the source.

Tests used:
[1] = duplex melting temperature (HRM, EvaGreen); higher = more stable duplex
Description: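 Listed DNA strand annealed 1:1 with its complementary strand (95 °C 5 min, 0.1 °C/s to 20 °C). Melted in 1x NNE buffer (500 mM NaCl, 10 mM Na2HPO4, 1 mM EDTA, pH 7.0) with 1x EvaGreen on a LightCycler96 (37 to 97 °C, 0.1 °C/s). Tm is the peak of -dF/dT at the stated total duplex concentration; 4 replicates are averaged. PS oligos are non-stereospecific (Rp/Sp mixtures).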

[2] = duplex formation free energy ΔG50 (Van't Hoff fit of HRM Tm); higher = less stable duplex; conditions: temperature for dG: 50 °C, NaCl: 500 mM (unadjusted)
Description: (§1)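 Duplex of the listed DNA strand with its complement, in 1x NNE buffer (500 mM NaCl, pH 7.0) with 1x EvaGreen. ΔH and ΔS come from a Van't Hoff linear fit of 1/Tm against ln(CT/4) over 1-20 uM, using HRM Tm values.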

[3] = duplex formation enthalpy ΔH (Van't Hoff fit of HRM Tm); higher = less exothermic duplex formation; conditions: temperature for dG: 50 °C, NaCl: 500 mM (unadjusted)
Description: as §1

[4] = duplex formation entropy ΔS (Van't Hoff fit of HRM Tm); higher = smaller entropy loss on duplex formation; conditions: temperature for dG: 50 °C, NaCl: 500 mM (unadjusted)
Description: as §1

[5] = duplex concentration 1 µM, backbone: PS-PO (listed strand fully phosphorothioate, complement phosphodiester)
[6] = duplex concentration 1 µM, backbone: PS-PS (both strands fully phosphorothioate)
[7] = duplex concentration 2.5 µM, backbone: PO-PO (both strands phosphodiester DNA)
[8] = duplex concentration 2.5 µM, backbone: PS-PO (listed strand fully phosphorothioate, complement phosphodiester)
[9] = duplex concentration 2.5 µM, backbone: PS-PS (both strands fully phosphorothioate)
[10] = duplex concentration 5 µM, backbone: PO-PO (both strands phosphodiester DNA)
[11] = duplex concentration 5 µM, backbone: PS-PO (listed strand fully phosphorothioate, complement phosphodiester)
[12] = duplex concentration 5 µM, backbone: PS-PS (both strands fully phosphorothioate)
[13] = duplex concentration 7.5 µM, backbone: PO-PO (both strands phosphodiester DNA)
[14] = duplex concentration 7.5 µM, backbone: PS-PO (listed strand fully phosphorothioate, complement phosphodiester)
[15] = duplex concentration 7.5 µM, backbone: PS-PS (both strands fully phosphorothioate)
[16] = duplex concentration 10 µM, backbone: PO-PO (both strands phosphodiester DNA)
[17] = duplex concentration 10 µM, backbone: PS-PO (listed strand fully phosphorothioate, complement phosphodiester)
[18] = duplex concentration 10 µM, backbone: PS-PS (both strands fully phosphorothioate)
[19] = duplex concentration 15 µM, backbone: PO-PO (both strands phosphodiester DNA)
[20] = duplex concentration 15 µM, backbone: PS-PO (listed strand fully phosphorothioate, complement phosphodiester)
[21] = duplex concentration 15 µM, backbone: PS-PS (both strands fully phosphorothioate)
[22] = duplex concentration 20 µM, backbone: PO-PO (both strands phosphodiester DNA)
[23] = duplex concentration 20 µM, backbone: PS-PO (listed strand fully phosphorothioate, complement phosphodiester)
[24] = duplex concentration 20 µM, backbone: PS-PS (both strands fully phosphorothioate)
[25] = backbone: PO-PO (both strands phosphodiester DNA)
[26] = backbone: PS-PO (listed strand fully phosphorothioate, complement phosphodiester)
[27] = duplex concentration 1 µM, backbone: PO-PO (both strands phosphodiester DNA)
[28] = backbone: PS-PS (both strands fully phosphorothioate)

Sequence	duplex melting temperature [1, 5] [°C]	duplex melting temperature [1, 6] [°C]	duplex melting temperature [1, 7] [°C]	duplex melting temperature [1, 8] [°C]	duplex melting temperature [1, 9] [°C]	duplex melting temperature [1, 10] [°C]	duplex melting temperature [1, 11] [°C]	duplex melting temperature [1, 12] [°C]	duplex melting temperature [1, 13] [°C]	duplex melting temperature [1, 14] [°C]	duplex melting temperature [1, 15] [°C]	duplex melting temperature [1, 16] [°C]	duplex melting temperature [1, 17] [°C]	duplex melting temperature [1, 18] [°C]	duplex melting temperature [1, 19] [°C]	duplex melting temperature [1, 20] [°C]	duplex melting temperature [1, 21] [°C]	duplex melting temperature [1, 22] [°C]	duplex melting temperature [1, 23] [°C]	duplex melting temperature [1, 24] [°C]	duplex formation free energy ΔG50 [2, 25] [kcal/mol]	duplex formation free energy ΔG50 [2, 26] [kcal/mol]	duplex formation enthalpy ΔH [3, 25] [kcal/mol]	duplex formation enthalpy ΔH [3, 26] [kcal/mol]	duplex formation entropy ΔS [4, 25] [cal/mol/K]	duplex formation entropy ΔS [4, 26] [cal/mol/K]	duplex melting temperature [1, 27] [°C]	duplex formation free energy ΔG50 [2, 28] [kcal/mol]	duplex formation enthalpy ΔH [3, 28] [kcal/mol]	duplex formation entropy ΔS [4, 28] [cal/mol/K]
TACTTCCAACGTAGG	49.1	45.032 ± 0.023	59.72 ± 0.33	51.72 ± 0.075	45.59 ± 0.28	62 ± 0.17	55.02 ± 0.098	47.2 ± 0.46	63.52 ± 0.17	56.5 ± 0.21	48.26 ± 0.23	64.46 ± 0.077	57.42 ± 0.17	49.7 ± 0.78	66.07 ± 0.095	58.63 ± 0.099	50.85 ± 0.34	67.22 ± 0.12	59.46 ± 0.12	51.9 ± 0.73	-10.98 ± 0.06	-9.629 ± 0.064	-62.5 ± 1.4	-61.3 ± 3	-159 ± 4.2	-160 ± 9.1	–	–	–	–
AACGAATGTCAGCAATT	55.7 ± 0.6	47.1 ± 0.49	64.93 ± 0.41	58.37 ± 0.15	49.91 ± 0.19	66.97 ± 0.37	60.36 ± 0.23	52.27 ± 0.13	68.1 ± 0.45	61.59 ± 0.21	53.4 ± 0.093	69.1 ± 0.15	62.44 ± 0.15	54.261 ± 0.011	70.52 ± 0.15	63.69 ± 0.16	55.38 ± 0.048	71.52 ± 0.29	64.46 ± 0.11	56.34 ± 0.12	-12.5 ± 0.15	-11.05 ± 0.039	-74.4 ± 2.8	-74.7 ± 1.1	-192 ± 8.3	-197 ± 3.4	62.43 ± 0.59	-9.166 ± 0.023	-68.5 ± 1.9	-184 ± 5.7
TTAACCTGCAATGGATC	–	45.6 ± 0.62	63.2 ± 0.41	57.18 ± 0.21	48.62 ± 0.33	65.13 ± 0.59	59.09 ± 0.26	50.69 ± 0.37	66.57 ± 0.28	60.587 ± 0.046	51.91 ± 0.21	67.55 ± 0.2	61.376 ± 0.056	52.76 ± 0.14	68.98 ± 0.14	62.586 ± 0.015	54.03 ± 0.099	70.06 ± 0.25	63.32 ± 0.095	54.97 ± 0.2	-11.83 ± 0.098	-10.78 ± 0.066	-68.7 ± 2	-73.7 ± 2	-176 ± 5.8	-195 ± 6.1	60.19 ± 0.12	-8.858 ± 0.019	-67.1 ± 1.9	-180 ± 5.8
AGACATCCCATACGAGCATCCA	67.6 ± 0.69	58.4 ± 0.91	75.64 ± 0.58	69.1 ± 0.53	60.9 ± 0.71	77.03 ± 0.46	70.2 ± 0.62	62.6 ± 0.4	78.03 ± 0.27	71.19 ± 0.51	63.56 ± 0.19	79.049 ± 0.057	71.87 ± 0.23	64.391 ± 0.055	79.985 ± 0.077	72.68 ± 0.15	65.3 ± 0.086	80.728 ± 0.069	73.314 ± 0.051	65.89 ± 0.11	-17.5 ± 0.61	-16.1 ± 0.3	-112 ± 7.7	-124 ± 4.9	-292 ± 22	-333 ± 14	74.67 ± 0.5	-12.13 ± 0.08	-90.8 ± 2	-243 ± 6
TGTCGCACCCTACTA	–	49.8 ± 0.68	66.1	59.14 ± 0.13	53.99 ± 0.17	68.24 ± 0.43	61.72 ± 0.17	56.51 ± 0.21	69.66 ± 0.3	62.92 ± 0.17	57.65 ± 0.22	71.02 ± 0.2	64.01 ± 0.12	58.5 ± 0.23	72.66 ± 0.19	65.449 ± 0.05	59.67 ± 0.14	73.62 ± 0.15	66.44 ± 0.098	60.75 ± 0.17	-12.1 ± 0.25	-10.95 ± 0.05	-63.3 ± 4.2	-64.2 ± 1.2	-158 ± 12	-165 ± 3.6	62.8 ± 2.6	-9.838 ± 0.072	-60.7 ± 3.1	-157 ± 9.5
TTTGGGTTAGTAAGAAGGCAGCAGTTGGGC	73.49 ± 0.58	64.9 ± 0.6	81.98 ± 0.11	74.54 ± 0.53	66.58 ± 0.4	82.782 ± 0.065	75.49 ± 0.43	67.7 ± 0.32	83.39 ± 0.22	76.34 ± 0.31	68.34 ± 0.25	83.787 ± 0.08	76.74 ± 0.24	68.92 ± 0.12	84.24 ± 0.16	77.38 ± 0.2	69.54 ± 0.097	85	77.939 ± 0.056	70.01 ± 0.096	-26.6 ± 0.73	-20.7 ± 0.54	-194 ± 7.9	-163 ± 7.3	-517 ± 22	-439 ± 21	80.77 ± 0.16	-15.88 ± 0.14	-138 ± 2.7	-377 ± 7.9
GAGGCAGCCGCGACCTG	–	63.68 ± 0.2	79.56 ± 0.14	72.02 ± 0.12	66.28 ± 0.29	81.39 ± 0.49	74.37 ± 0.34	68.52 ± 0.17	82.28 ± 0.58	75.9 ± 0.24	69.83 ± 0.094	82.97 ± 0.38	76.878 ± 0.05	70.65 ± 0.094	83.76 ± 0.16	77.946 ± 0.052	71.79 ± 0.097	84.53 ± 0.52	78.61 ± 0.15	72.633 ± 0.05	–	-14.3 ± 0.27	–	-78.6 ± 3.5	–	-199 ± 10	–	-12.88 ± 0.078	-76.7 ± 1.4	-198 ± 4
CTCGGAGGCCCCATTTA	60.53 ± 0.43	56.27 ± 0.32	69.45 ± 0.55	63.65 ± 0.44	59.31 ± 0.12	72.34 ± 0.17	66.33 ± 0.23	61.51 ± 0.1	73.72 ± 0.22	67.63 ± 0.23	62.63 ± 0.089	74.68 ± 0.39	68.67 ± 0.14	63.34 ± 0.086	76.04 ± 0.34	69.97 ± 0.17	64.55 ± 0.08	76.97 ± 0.28	70.91 ± 0.14	65.31 ± 0.13	-13.2 ± 0.19	-11.87 ± 0.061	-68.7 ± 2.7	-66 ± 1.2	-172 ± 7.8	-167 ± 3.5	–	-11.22 ± 0.074	-73.9 ± 2	-194 ± 6.1
TTCTACATCCATCTTAATCCCA	59.7	49.9 ± 0.91	69.29 ± 0.65	60.3 ± 0.71	52.2 ± 0.78	70.58 ± 0.52	61.7 ± 1	54.2 ± 0.62	71.5 ± 0.27	63 ± 0.72	55.53 ± 0.29	72.3 ± 0.098	63.81 ± 0.27	56.28 ± 0.17	73.48 ± 0.21	64.85 ± 0.098	57.3 ± 0.083	74.36 ± 0.2	65.55 ± 0.094	57.98 ± 0.21	-14.7 ± 0.46	-12 ± 0.2	-99.4 ± 7.2	-90.6 ± 5.1	-262 ± 21	-243 ± 15	–	-9.752 ± 0.037	-78.1 ± 2.2	-212 ± 6.8
